For this data set the following is noted: Lithobates pipiens, pH 5.5, sodium acetate 100 mM, reversible: Yes, whole UniProt chain shown.

The values that follow come from FireProtDB (doi:10.1021/bi0525223).

In general, Tm refers to the temperature at the midpoint of the melting transition.

B1: Protein P-30 wild type, P22069 (protein)
chain: QDWLTFQKKHITNTRDVDCDNIMSTNLFHCKDKNTFIYSRPEPVKAICKGIIASKNVLTTSEFYLSDCNVTSRPCKYKLKKSTNKFCVTCENQAPVHFVGVGSC
As to B1, the “denaturant midpoint (higher = more stable)” value (20 °C, GdnHCl, Fluorescence) amounted to 4.4 M. The Tm (Thermal, DSC) is 88.5 °C.
